This is an account of results in patent publication US20230406885A1, “CYCLIC PEPTIDES FOR TRAPPING INTERLEUKIN-1 BETA” (MERCK SHARP & DOHME LLC, priority 2022, published 2023).

*1 amine or outer side, *2 acyl side, *3 side chain or, on linkers, in order; H or OH if unused. [ ]: non-standard residue; d: D form. 3AzaPhe4AcPip = (S)-3-(6-(4-acetylpiperazin-1-yl)pyridin-3-yl)-2-aminopropanoic acid, CC(=O)N1CCN(c2ccc(C[C@H](N[*:1])C(=O)[*:2])cn2)CC1; Pro(trans-4-NH2) = O=C([C@@H]1C[C@@H](N[*:3])CN1[*:1])[*:2]; Trp(βS-Me,4-F) = C[C@@H](c1c[nH]c2cccc(F)c12)[C@H](N)C(=O)O; Bip(4'-COOH) = N[C@@H](Cc1ccc(-c2ccc(C(=O)O)cc2)cc1)C(=O)O; Phe(4-COOH) = N[C@@H](Cc1ccc(C(=O)O)cc1)C(=O)O; hTyr = N[C@@H](CCc1ccc(O)cc1)C(=O)O; dDab = NCC[C@@H](N)C(=O)O; dNMeA = CN[C@H](C)C(=O)O; Nva = CCC[C@H](N)C(=O)O

Sequences and labels used below:
B1: SEQ ID NO: 70 (peptide)
peptide: cyclo([Bip(4'-COOH)]W[Phe(4-COOH)]G[Pro(trans-4-NH2)][Trp(βS-Me,4-F)]D[dNMeA]G[Bip(4'-COOH)]KLG[hTyr])
SMILES: CC(C)C[C@@H]1NC(=O)[C@H](CCCCN)NC(=O)[C@H](Cc2ccc(-c3ccc(C(=O)O)cc3)cc2)NC(=O)CNC(=O)[C@@H](C)N(C)C(=O)[C@H](CC(=O)O)NC(=O)[C@H]([C@@H](C)c2c[nH]c3cccc(F)c23)NC(=O)[C@@H]2C[C@@H](N)CN2C(=O)CNC(=O)[C@H](Cc2ccc(C(=O)O)cc2)NC(=O)[C@H](Cc2c[nH]c3ccccc23)NC(=O)[C@H](Cc2ccc(-c3ccc(C(=O)O)cc3)cc2)NC(=O)[C@H](CCc2ccc(O)cc2)NC(=O)CNC1=O
B2: SEQ ID NO: 72 (peptide)
peptide: cyclo([Bip(4'-COOH)]W[Phe(4-COOH)]G[Pro(trans-4-NH2)][Trp(βS-Me,4-F)]D[dNMeA]G[Bip(4'-COOH)]KS[dA][hTyr])
SMILES: C[C@@H]1C(=O)NCC(=O)N[C@@H](Cc2ccc(-c3ccc(C(=O)O)cc3)cc2)C(=O)N[C@@H](CCCCN)C(=O)N[C@@H](CO)C(=O)N[C@H](C)C(=O)N[C@@H](CCc2ccc(O)cc2)C(=O)N[C@@H](Cc2ccc(-c3ccc(C(=O)O)cc3)cc2)C(=O)N[C@@H](Cc2c[nH]c3ccccc23)C(=O)N[C@@H](Cc2ccc(C(=O)O)cc2)C(=O)NCC(=O)N2C[C@H](N)C[C@H]2C(=O)N[C@@H]([C@@H](C)c2c[nH]c3cccc(F)c23)C(=O)N[C@@H](CC(=O)O)C(=O)N1C
B3: SEQ ID NO: 69 (peptide)
peptide: cyclo([Bip(4'-COOH)]W[Phe(4-COOH)]G[Pro(trans-4-NH2)][Trp(βS-Me,4-F)]D[dNMeA]G[Bip(4'-COOH)]KL[dS][hTyr])
SMILES: CC(C)C[C@@H]1NC(=O)[C@H](CCCCN)NC(=O)[C@H](Cc2ccc(-c3ccc(C(=O)O)cc3)cc2)NC(=O)CNC(=O)[C@@H](C)N(C)C(=O)[C@H](CC(=O)O)NC(=O)[C@H]([C@@H](C)c2c[nH]c3cccc(F)c23)NC(=O)[C@@H]2C[C@@H](N)CN2C(=O)CNC(=O)[C@H](Cc2ccc(C(=O)O)cc2)NC(=O)[C@H](Cc2c[nH]c3ccccc23)NC(=O)[C@H](Cc2ccc(-c3ccc(C(=O)O)cc3)cc2)NC(=O)[C@H](CCc2ccc(O)cc2)NC(=O)[C@@H](CO)NC1=O
B4: SEQ ID NO: 7 (peptide)
peptide: cyclo([3AzaPhe4AcPip]W[Phe(4-COOH)]G[Pro(trans-4-NH2)][Trp(βS-Me,4-F)]D[dNMeA]G[Bip(4'-COOH)]KL[dDab][hTyr])
SMILES: CC(=O)N1CCN(c2ccc(C[C@@H]3NC(=O)[C@H](CCc4ccc(O)cc4)NC(=O)[C@@H](CCN)NC(=O)[C@H](CC(C)C)NC(=O)[C@H](CCCCN)NC(=O)[C@H](Cc4ccc(-c5ccc(C(=O)O)cc5)cc4)NC(=O)CNC(=O)[C@@H](C)N(C)C(=O)[C@H](CC(=O)O)NC(=O)[C@H]([C@@H](C)c4c[nH]c5cccc(F)c45)NC(=O)[C@@H]4C[C@@H](N)CN4C(=O)CNC(=O)[C@H](Cc4ccc(C(=O)O)cc4)NC(=O)[C@H](Cc4c[nH]c5ccccc45)NC3=O)cn2)CC1
B5: SEQ ID NO: 71 (peptide)
peptide: cyclo([Bip(4'-COOH)]W[Phe(4-COOH)]G[Pro(trans-4-NH2)][Trp(βS-Me,4-F)]D[dNMeA]G[Bip(4'-COOH)]K[Nva][dA][hTyr])
SMILES: CCC[C@@H]1NC(=O)[C@H](CCCCN)NC(=O)[C@H](Cc2ccc(-c3ccc(C(=O)O)cc3)cc2)NC(=O)CNC(=O)[C@@H](C)N(C)C(=O)[C@H](CC(=O)O)NC(=O)[C@H]([C@@H](C)c2c[nH]c3cccc(F)c23)NC(=O)[C@@H]2C[C@@H](N)CN2C(=O)CNC(=O)[C@H](Cc2ccc(C(=O)O)cc2)NC(=O)[C@H](Cc2c[nH]c3ccccc23)NC(=O)[C@H](Cc2ccc(-c3ccc(C(=O)O)cc3)cc2)NC(=O)[C@H](CCc2ccc(O)cc2)NC(=O)[C@@H](C)NC1=O

The assay deals with Recombinant human IL-1β (BioLegend 579404) (human, UniProt P01584 117-269). In words: cell-based or functional assay.
As for B1, the “MRC5 IC50” value came out at 0.0973 nM.

Consider B2, for which the “MRC5 IC50” value turned out to be 0.107 nM. As to B3, the “MRC5 IC50” value stood at 0.334 nM. Take B4: the “MRC5 IC50” value turned out to be 0.135 nM. As for B5, the “MRC5 IC50” value came to 0.0926 nM.
